Data published in patent US20240400638A1, “COMBINATION OF RELAXIN AND VASOPRESSIN ANALOGUES FOR TREATMENT OF RENAL DISORDERS OR CONDITIONS” (River 2 Renal Corp., priority 2021, published 2024).
Numbered stars: 1 amine (or outer) side, 2 acyl side, 3 side chain; on linkers, the order of the positions; unused ones are H or OH. Square brackets hold non-standard residues; d marks the D form. Side chains are listed from the residue outwards. * marks the point of attachment. TTDS = 4-[3-[2-[2-(3-aminopropoxy)ethoxy]ethoxy]propylamino]-4-oxo-butanoyl; Trp(5-Cl) = N[C@@H](Cc1c[nH]c2ccc(Cl)cc12)C(=O)O; γGlu = O=C(O)[C@H](CCC(=O)[*:2])N[*:1]; Stearoyl = CCCCCCCCCCCCCCCCCC(=O)*; Palmitoyl = CCCCCCCCCCCCCCCC(=O)*; αMeF = C[C@](N)(Cc1ccccc1)C(=O)O; αMeK = C[C@](N)(CCCCN)C(=O)O; hLys = NCCCCC[C@H](N)C(=O)O; AEEA = NCCOCCOCC(=O)O; Aib = CC(C)(N)C(=O)O

T1: human RXFP1 (human, UniProt Q9HBX9 1-757)
T1 sequence (looked up): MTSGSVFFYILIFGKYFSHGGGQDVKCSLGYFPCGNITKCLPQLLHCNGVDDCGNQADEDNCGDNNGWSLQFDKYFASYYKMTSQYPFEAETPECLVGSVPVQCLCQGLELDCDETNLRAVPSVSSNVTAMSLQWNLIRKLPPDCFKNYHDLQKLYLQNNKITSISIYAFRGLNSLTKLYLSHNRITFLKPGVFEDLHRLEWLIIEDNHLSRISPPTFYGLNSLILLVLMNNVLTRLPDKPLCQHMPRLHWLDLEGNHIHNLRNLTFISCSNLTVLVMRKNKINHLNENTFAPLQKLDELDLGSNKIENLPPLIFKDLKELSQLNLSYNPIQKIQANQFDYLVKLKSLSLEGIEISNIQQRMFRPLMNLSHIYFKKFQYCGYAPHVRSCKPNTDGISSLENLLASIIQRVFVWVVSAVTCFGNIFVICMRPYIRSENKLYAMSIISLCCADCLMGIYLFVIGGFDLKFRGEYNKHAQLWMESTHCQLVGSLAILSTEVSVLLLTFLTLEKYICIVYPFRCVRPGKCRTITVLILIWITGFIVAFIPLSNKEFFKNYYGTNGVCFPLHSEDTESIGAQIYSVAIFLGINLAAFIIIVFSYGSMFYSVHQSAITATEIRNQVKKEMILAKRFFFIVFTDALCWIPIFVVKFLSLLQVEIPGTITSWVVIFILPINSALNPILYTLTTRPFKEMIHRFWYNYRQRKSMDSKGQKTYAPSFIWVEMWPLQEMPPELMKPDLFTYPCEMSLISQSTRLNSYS


molecular target: T1, human RXFP1; assay: cell-based or functional assay

Binder	EC50 (nM), OVCAR 5 cells (cAMP) [nM]	EMax, OVCAR 5 cells (cAMP) [%]
Ac-LEGREKVRAK(Ac)I[Aib][Aib]EGK([TTDS-TTDS-TTDS-γGlu-γGlu-γGlu-Palmitoyl])STF[Aib]RRAK(Ac)-NH2 [Relaxin peptide analogue of SEQ ID NO: 72]	0.56	91
Ac-LEGRERVRAK(Ac)I[Aib][Aib]EGK([TTDS-TTDS-TTDS-TTDS-γGlu-γGlu-γGlu-Palmitoyl])STWS[Aib]RRK(Ac)-NH2 [Relaxin peptide analogue of SEQ ID NO: 75]	0.19	97
Ac-LEGREKVRAK(Ac)I[Aib][Aib]EGK([AEEA-AEEA-AEEA-AEEA-γGlu-γGlu-γGlu-Palmitoyl])STFS[αMeK]RAK(Ac)-NH2 (SMILES CCCCCCCCCCCCCCCC(=O)N[C@@H](CCC(=O)N[C@@H](CCC(=O)N[C@@H](CCC(=O)NCCOCCOCC(=O)NCCOCCOCC(=O)NCCOCCOCC(=O)NCCOCCOCC(=O)NCCCC[C@H](NC(=O)CNC(=O)[C@H](CCC(=O)O)NC(=O)C(C)(C)NC(=O)C(C)(C)NC(=O)[C@@H](NC(=O)[C@H](CCCCNC(C)=O)NC(=O)[C@H](C)NC(=O)[C@H](CCCNC(=N)N)NC(=O)[C@@H](NC(=O)[C@H](CCCCN)NC(=O)[C@H](CCC(=O)O)NC(=O)[C@H](CCCNC(=N)N)NC(=O)CNC(=O)[C@H](CCC(=O)O)NC(=O)[C@H](CC(C)C)NC(C)=O)C(C)C)[C@@H](C)CC)C(=O)N[C@@H](CO)C(=O)N[C@H](C(=O)N[C@@H](Cc1ccccc1)C(=O)N[C@@H](CO)C(=O)N[C@@](C)(CCCCN)C(=O)N[C@@H](CCCNC(=N)N)C(=O)N[C@@H](C)C(=O)N[C@@H](CCCCNC(C)=O)C(N)=O)[C@@H](C)O)C(=O)O)C(=O)O)C(=O)O) [Relaxin peptide analogue of SEQ ID NO: 8]	1.86	92
Ac-LEGREKVRAK(Ac)I[Aib][Aib]EGK([TTDS-TTDS-TTDS-γGlu-γGlu-γGlu-Stearoyl])STFS[αMeK]RAK(Ac)-NH2 [Relaxin peptide analogue of SEQ ID NO: 7]	0.07	95
Ac-LEGREKVRAK(Ac)I[Aib]IEGK([TTDS-TTDS-TTDS-TTDS-γGlu-γGlu-γGlu-Palmitoyl])STWS[Aib]RKK(Ac)-NH2 [Relaxin peptide analogue of SEQ ID NO: 74]	0.54	94
Ac-LEGREKVRAK(Ac)I[Aib][Aib]EGK([TTDS-TTDS-TTDS-γGlu-γGlu-γGlu-Palmitoyl])STWS[Aib]RK(Ac)K-NH2 [Relaxin peptide analogue of SEQ ID NO: 68]	0.88	98
Ac-LEGREKVRAK(Ac)I[Aib][Aib]EGK([TTDS-TTDS-TTDS-γGlu-γGlu-γGlu-Palmitoyl])STWS[Aib]RK(Ac)R-NH2 [Relaxin peptide analogue of SEQ ID NO: 69]	0.78	97
Ac-LEGRERVRAK(Ac)I[Aib][Aib]EGK([TTDS-TTDS-TTDS-γGlu-γGlu-γGlu-Palmitoyl])STWS[Aib]RKK(Ac)-NH2 [Relaxin peptide analogue of SEQ ID NO: 67]	0.48	95
Ac-LEGREKVRAK(Ac)I[Aib][Aib]EGK([TTDS-TTDS-TTDS-γGlu-γGlu-γGlu-Palmitoyl])STWS[Aib]RAK-NH2 [Relaxin peptide analogue of SEQ ID NO: 71]	0.36	95
Ac-LEGREKVRAK(Ac)I[Aib]IEGK([TTDS-TTDS-TTDS-γGlu-γGlu-γGlu-Palmitoyl])STWS[Aib]RKK(Ac)-NH2 [Relaxin peptide analogue of SEQ ID NO: 70]	1.34	94
Ac-LEGREKVRAK(Ac)I[Aib][Aib]EGK([TTDS-TTDS-TTDS-γGlu-γGlu-γGlu-Palmitoyl])STWK(Ac)[Aib]RAK(Ac)-NH2 [Relaxin peptide analogue of SEQ ID NO: 66]	6.31	93
Ac-LEGREKVRAK(Ac)I[Aib][Aib]EGK([TTDS-TTDS-TTDS-γGlu-γGlu-γGlu-Palmitoyl])SKWS[Aib]RAK-NH2 [Relaxin peptide analogue of SEQ ID NO: 73]	0.2	95

Continued, values first:

EC50 (nM), OVCAR 5 cells (cAMP) [nM]	EMax, OVCAR 5 cells (cAMP) [%]	Binder
0.11	98	Ac-LEGRERVRAK(Ac)I[Aib][Aib]EGK([TTDS-TTDS-TTDS-TTDS-γGlu-γGlu-γGlu-Palmitoyl])STFS[Aib]RRK(Ac)-NH2 [Relaxin peptide analogue of SEQ ID NO: 77]
0.3	95	Ac-[Aib]EGREKVRAK(Ac)I[Aib]IEGK([TTDS-TTDS-TTDS-γGlu-γGlu-γGlu-Palmitoyl])STFS[αMeK]RAK(Ac)-NH2 [Relaxin peptide analogue of SEQ ID NO: 86]
0.1	95	Ac-LEGREKVRAK(Ac)I[Aib]IEGK([TTDS-TTDS-TTDS-γGlu-γGlu-γGlu-Palmitoyl])STFS[αMeK]RAK(Ac)-NH2 [Relaxin peptide analogue of SEQ ID NO: 84]
0.63	93	Ac-LEGRERVRAK(Ac)I[Aib][Aib]EGK([TTDS-TTDS-TTDS-γGlu-γGlu-γGlu-Palmitoyl])ST[Trp(5-Cl)]S[Aib]RRK(Ac)-NH2 [Relaxin peptide analogue of SEQ ID NO: 80]
0.45	95	Ac-LEGREKVRAK(Ac)I[Aib][Aib]EGK([TTDS-TTDS-TTDS-γGlu-γGlu-γGlu-Palmitoyl])SKFS[Aib]RKK(Ac)-NH2 [Relaxin peptide analogue of SEQ ID NO: 79]
0.14	97	Ac-LEGREKVRAK(Ac)IA[Aib]EGK([TTDS-TTDS-TTDS-γGlu-γGlu-γGlu-Palmitoyl])STFS[αMeK]RAK(Ac)-NH2 [Relaxin peptide analogue of SEQ ID NO: 90]
0.17	96	Ac-LEGREKVRAK(Ac)I[Aib][Aib]EGK([TTDS-TTDS-TTDS-γGlu-γGlu-γGlu-Palmitoyl])STFS[hLys]RAK(Ac)-NH2 [Relaxin peptide analogue of SEQ ID NO: 88]
0.1	97	Ac-LEGREKVRAK(Ac)I[Aib][Aib]EGK([TTDS-TTDS-TTDS-γGlu-γGlu-γGlu-Palmitoyl])ST[αMeF]SRRAK(Ac)-NH2 [Relaxin peptide analogue of SEQ ID NO: 89]
0.3	92	Ac-LEGRERVR[Aib]K(Ac)I[Aib][Aib]EGK([TTDS-TTDS-TTDS-γGlu-γGlu-γGlu-Palmitoyl])STWS[Aib]RRK(Ac)-NH2 [Relaxin peptide analogue of SEQ ID NO: 85]
0.18	96	Ac-LEGRERVRAK(Ac)I[Aib][Aib]EGK([TTDS-TTDS-TTDS-γGlu-γGlu-γGlu-Palmitoyl])STFS[Aib]RRK(Ac)-NH2 [Relaxin peptide analogue of SEQ ID NO: 76]
0.18	99	Ac-LEGREKVRAK(Ac)I[Aib][Aib]EGK([TTDS-TTDS-TTDS-TTDS-γGlu-γGlu-γGlu-Palmitoyl])STFS[αMeK]RAK(Ac)-NH2 [Relaxin peptide analogue of SEQ ID NO: 78]
0.54	95	Ac-LEGREKVR[Aib]K(Ac)I[Aib][Aib]EGK([TTDS-TTDS-TTDS-γGlu-γGlu-γGlu-Palmitoyl])STWS[Aib]RAK(Ac)-NH2 [Relaxin peptide analogue of SEQ ID NO: 82]
0.25	94	Ac-LEGREKVRAK(Ac)I[Aib][Aib]EGK([TTDS-TTDS-TTDS-γGlu-γGlu-γGlu-Palmitoyl])SKWS[Aib]RKK(Ac)-NH2 [Relaxin peptide analogue of SEQ ID NO: 83]
0.16	98	Ac-K(Ac)EGREKVRAK(Ac)I[Aib][Aib]EGK([TTDS-TTDS-TTDS-γGlu-γGlu-γGlu-Palmitoyl])STFS[αMeK]RAK(Ac)-NH2 [Relaxin peptide analogue of SEQ ID NO: 81]
0.1	96	Ac-LEGREKVRAK(Ac)I[Aib][Aib]EGK([TTDS-TTDS-TTDS-γGlu-γGlu-γGlu-Palmitoyl])STFSRRAK(Ac)-NH2 [Relaxin peptide analogue of SEQ ID NO: 87]
